The RNAGym collection of RNA variant scans (doi:10.7554/elife.80360)

B1: CPEB3 Ribozyme (parent)
chain: GGGGGCCACAGCAGAAGCGUUCACGUCGCGGCCCCUGUCAGAUUCUGGUGAAUCUGCGAAUUCUGCUGU

Variants of: B1
Assay: self-cleavage, relative activity (ratio to wild type); higher = more cleavage; co-transcriptional
With GGGGGCCACAGCAGAAGCGUUCACGUCGCGGCCCCUGUCAGAUUCUGGUGAAGCUGCGACUUCUGCUGU the self-cleavage was 0.308. Work on GGGGGCCACAGCAGAAGCGUUCACGUCGCGGCCCCUGUCAGAUUCUGGUGAAGCUGCGAUUUCUGCUGU yielded a self-cleavage of 0.301. In the case of GGGGGCCACAGCAGAAGCGUUCACGUCGCGGCCCCUGUCAGAUUCUGGUGAAGCUGCGAGUUCUGCUGU, the self-cleavage is reported as 0.793. Work on GGGGGCCACAGCAGAAGCGUUCACGUCGCGGCCCCUGUCAGAUUCUGGUGAACCAGCGAAUUCUGCUGU yielded a self-cleavage of 0.364. In the case of GGGGGCCACAGCAGAAGCGUUCACGUCGCGGCCCCUGUCAGAUUCUGGUGAACCCGCGAAUUCUGCUGU, the self-cleavage is reported as 0.409. Variant GGGGGCCACAGCAGAAGCGUUCACGUCGCGGCCCCUGUCAGAUUCUGGUGAACCGGCGAAUUCUGCUGU has a self-cleavage of 0.303. Variant GGGGGCCACAGCAGAAGCGUUCACGUCGCGGCCCCUGUCAGAUUCUGGUGAACCUGCGAAGUCUGCUGU has a self-cleavage of 0.58. In the case of GGGGGCCACAGCAGAAGCGUUCACGUCGCGGCCCCUGUCAGAUUCUGGUGAACCUGCGAAUUCUGGUGU, the self-cleavage is reported as 0.477. In the case of GGGGGCCACAGCAGAAGCGUUCACGUCGCGGCCCCUGUCAGAUUCUGGUGAAACUGCGAAUUCUGCUGG, the self-cleavage is reported as 1.05. GGGGGCCACAGCAGAAGCGUUCACGUCGCGGCCCCUGUCAGAUUCUGGUGAAGCUGCGAAUACUGCUGU gave a self-cleavage of 0.688. GGGGGCCACAGCAGAAGCGUUCACGUCGCGGCCCCUGUCAGAUUCUGGUGAAGCUGCGAAUCCUGCUGU showed a self-cleavage of 0.619. Work on GGGGGCCACAGCAGAAGCGUUCACGUCGCGGCCCCUGUCAGAUUCUGGUGAAGCUGCGAAUUCUACUGU yielded a self-cleavage of 0.707. For GGGGGCCACAGCAGAAGCGUUCACGUCGCGGCCCCUGUCAGAUUCUGGUGAAGCUGCGAAUUCUCCUGU, the self-cleavage was 0.704. Variant GGGGGCCACAGCAGAAGCGUUCACGUCGCGGCCCCUGUCAGAUUCUGGUGAAGCUGCGAAUUCUUCUGU has a self-cleavage of 0.606. Work on GGGGGCCACAGCAGAAGCGUUCACGUCGCGGCCCCUGUCAGAUUCUGGUGAAGCUGCGAAUUCUGCUAU yielded a self-cleavage of 0.909. Work on GGGGGCCACAGCAGAAGCGUUCACGUCGCGGCCCCUGUCAGAUUCUGGUGAACCUGCGAUUUCUGCUGU yielded a self-cleavage of 0.397. GGGGGCCACAGCAGAAGCGUUCACGUCGCGGCCCCUGUCAGAUUCUGGUGAACCUGCGACUUCUGCUGU showed a self-cleavage of 0.31. Work on GGGGGCCACAGCAGAAGCGUUCACGUCGCGGCCCCUGUCAGAUUCUGGUGAACCUGCGAGUUCUGCUGU yielded a self-cleavage of 0.711. In the case of GGGGGCCACAGCAGAAGCGUUCACGUCGCGGCCCCUGUCAGAUUCUGGUGAACCUGCGAAUUCUACUGU, the self-cleavage is reported as 0.472. In the case of GGGGGCCACAGCAGAAGCGUUCACGUCGCGGCCCCUGUCAGAUUCUGGUGAACCUGCGAAUUCUCCUGU, the self-cleavage is reported as 0.407. For GGGGGCCACAGCAGAAGCGUUCACGUCGCGGCCCCUGUCAGAUUCUGGUGAAGCUGCGAAUUCUGCUGC, the self-cleavage was 1.04. Variant GGGGGCCACAGCAGAAGCGUUCACGUCGCGGCCCCUGUCAGAUUCUGGUGAAGCUGCGAAUUCUGCUGG has a self-cleavage of 1.02. With GGGGGCCACAGCAGAAGCGUUCACGUCGCGGCCCCUGUCAGAUUCUGGUGAACCUGUGAAUUCUGCUGU the self-cleavage was 0.43. Work on GGGGGCCACAGCAGAAGCGUUCACGUCGCGGCCCCUGUCAGAUUCUGGUGAACCUGGGAAUUCUGCUGU yielded a self-cleavage of 0.398. In the case of GGGGGCCACAGCAGAAGCGUUCACGUCGCGGCCCCUGUCAGAUUCUGGUGAACCUGAGAAUUCUGCUGU, the self-cleavage is reported as 0.346. Variant GGGGGCCACAGCAGAAGCGUUCACGUCGCGGCCCCUGUCAGAUUCUGGUGAACCUGCGUAUUCUGCUGU has a self-cleavage of 0.618. With GGGGGCCACAGCAGAAGCGUUCACGUCGCGGCCCCUGUCAGAUUCUGGUGAACCUGCGGAUUCUGCUGU the self-cleavage was 0.944. With GGGGGCCACAGCAGAAGCGUUCACGUCGCGGCCCCUGUCAGAUUCUGGUGAACCUGCGCAUUCUGCUGU the self-cleavage was 0.525. In the case of GGGGGCCACAGCAGAAGCGUUCACGUCGCGGCCCCUGUCAGAUUCUGGUGAAGCUGCGAAUUCCGCUGU, the self-cleavage is reported as 0.764. For GGGGGCCACAGCAGAAGCGUUCACGUCGCGGCCCCUGUCAGAUUCUGGUGAAGCUGCGAAUUCGGCUGU, the self-cleavage was 0.6. GGGGGCCACAGCAGAAGCGUUCACGUCGCGGCCCCUGUCAGAUUCUGGUGAAGCUACGAAUUCUGCUGU showed a self-cleavage of 0.553. For GGGGGCCACAGCAGAAGCGUUCACGUCGCGGCCCCUGUCAGAUUCUGGUGAAGCUUCGAAUUCUGCUGU, the self-cleavage was 0.401. With GGGGGCCACAGCAGAAGCGUUCACGUCGCGGCCCCUGUCAGAUUCUGGUGAAGCUCCGAAUUCUGCUGU the self-cleavage was 0.331. With GGGGGCCACAGCAGAAGCGUUCACGUCGCGGCCCCUGUCAGAUUCUGGUGAACCUGCGAAUUCUGCUGG the self-cleavage was 0.993. In the case of GGGGGCCACAGCAGAAGCGUUCACGUCGCGGCCCCUGUCAGAUUCUGGUGAACCUGCGAAUUCUGCUGC, the self-cleavage is reported as 1.05. In the case of GGGGGCCACAGCAGAAGCGUUCACGUCGCGGCCCCUGUCAGAUUCUGGUGAAGCUGCGAAUUCUGAUGU, the self-cleavage is reported as 0.629. Variant GGGGGCCACAGCAGAAGCGUUCACGUCGCGGCCCCUGUCAGAUUCUGGUGAAGCCGCGAAUUCUGCUGU has a self-cleavage of 0.468. GGGGGCCACAGCAGAAGCGUUCACGUCGCGGCCCCUGUCAGAUUCUGGUGAAGCAGCGAAUUCUGCUGU showed a self-cleavage of 0.417. Variant GGGGGCCACAGCAGAAGCGUUCACGUCGCGGCCCCUGUCAGAUUCUGGUGAAGCUGCGAACUCUGCUGU has a self-cleavage of 0.473.
